From the supplement of paper PMC10724198
± gives the standard deviation of the averaged measurements.

Columns and labels:
[1] = system: Saccharomyces cerevisiae; assay: protein stability index of tFT-peptide fusion (C-terminal peptide) (PSI (0-1 scale)); higher = more stable (slower turnover)
Experimental: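 MPS profiling in S. cerevisiae of the tFT-X12 degron library: putative degron peptides plus stable controls, 12 aa, fused to the C-terminus of a sfGFP-mCherry timer. Cells are FACS-sorted into 8 mCherry/sfGFP bins and deep-sequenced. PSI runs from 0 (unstable) to 1 (stable). Backgrounds are wild type, das1Δ and doa10Δ at 30 °C, and wild type, das1Δ, cdc34-1 and cdc53-1 at 37 °C; 2-3 technical replicates each.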

[2] = system: Saccharomyces cerevisiae; assay: as above; conditions: genetic background: wild type; temperature: 30 C
[3] = genetic background: cdc34-1, temperature: 37 C
[4] = genetic background: cdc53-1, temperature: 37 C
[5] = genetic background: das1 deletion, temperature: 30 C
[6] = genetic background: das1 deletion, temperature: 37 C
[7] = genetic background: doa10 deletion, temperature: 30 C
[8] = genetic background: wild type, temperature: 30 C
[9] = genetic background: wild type, temperature: 37 C
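Further: PSI is a weighted mean of sequencing reads over stability bins, variants kept only with over 10 reads, mCherry proximal and sfGFP distal, peptide attached via GGGS linker.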

Row | Sequence | protein stability index [1, 3] | protein stability index [1, 4] | protein stability index [1, 5] | protein stability index [1, 6] | protein stability index [1, 7] | protein stability index [1, 8] | protein stability index [1, 9] | protein stability index [2]
1 | PYPSVIFFLHVY | 0.43 ± 0.0097 | 0.572 ± 0.0084 | 0.413 ± 0.029 | 0.56 ± 0.0098 | 0.15851 ± 3.4e-05 | 0.169 ± 0.025 | 0.237 ± 0.021 | 0.251 ± 0.049
2 | QIGSMLGVQGVG | 0.454 ± 0.017 | 0.526 ± 0.013 | 0.461 ± 0.013 | 0.516 ± 0.0073 | 0.495 ± 0.014 | 0.4672 ± 0.0041 | 0.545 ± 0.027 | 0.498 ± 0.031
3 | QILVSYSFLYFF | 0.5506 ± 0.0046 | 0.592 ± 0.041 | 0.44 ± 0.03 | 0.609 ± 0.023 | 0.3549 ± 0.0034 | 0.38 ± 0.017 | 0.539 ± 0.0058 | 0.509 ± 0.1
4 | QVVWAVPRICLV | 0.53508 ± 0.00047 | 0.567 ± 0.0099 | 0.438 ± 0.015 | 0.579 ± 0.0091 | 0.335 ± 0.015 | 0.358 ± 0.028 | 0.505 ± 0.019 | 0.445 ± 0.063
5 | QWRSWSFATLVT | 0.332 ± 0.017 | 0.321 ± 0.012 | 0.266 ± 0.049 | 0.424 ± 0.0064 | 0.22 ± 0.0082 | 0.258 ± 0.038 | 0.409 ± 0.0052 | 0.383 ± 0.0045
6 | RCRLYLNVVVLC | 0.269 ± 0.027 | 0.31 ± 0.0054 | 0.287 ± 0.047 | 0.413 ± 0.02 | 0.129 ± 0.01 | 0.122 ± 0.025 | 0.17 ± 0.0064 | 0.246 ± 0.07
7 | RCTFSFSFPFVL | 0.738 ± 0.032 | 0.754 ± 0.034 | 0.601 ± 0.0084 | 0.768 ± 0.0096 | 0.5998 ± 0.0024 | 0.602 ± 0.023 | 0.729 ± 0.011 | 0.596 ± 0.15
8 | RFCRVERAILLR | 0.334 ± 0.0068 | 0.251 ± 0.0061 | 0.33 ± 0.049 | 0.4436 ± 0.0035 | 0.622 ± 0.039 | 0.351 ± 0.026 | 0.41 ± 0.0053 | 0.481 ± 0.015
9 | RFFKMREAIRIS | 0.567 ± 0.088 | 0.5742 ± 0.00075 | 0.392 ± 0.022 | 0.59 ± 0.052 | 0.205 ± 0.0066 | 0.24 ± 0.032 | 0.482 ± 0.0067 | 0.339 ± 0.027
10 | RFPFFLPFIAFL | 0.491 ± 0.012 | 0.539 ± 0.019 | 0.55 ± 0.0097 | 0.637 ± 0.0021 | 0.306 ± 0.013 | 0.254 ± 0.032 | 0.39 ± 0.0084 | 0.37 ± 0.036
11 | RGCFVLRKTHLL | 0.635 ± 0.0083 | 0.715 ± 0.017 | 0.645 ± 0.018 | 0.7323 ± 0.0044 | 0.126 ± 0.0097 | 0.152 ± 0.014 | 0.275 ± 0.0075 | 0.254 ± 0.0058
12 | RGVRALFLLLSF | 0.493 ± 0.042 | 0.51346 ± 1.4e-05 | 0.392 ± 0.039 | 0.575 ± 0.011 | 0.264 ± 0.0047 | 0.272 ± 0.016 | 0.45 ± 0.02 | 0.375 ± 0.059
13 | RHAHPLTAQLPL | 0.683 ± 0.031 | 0.707 ± 0.024 | 0.657 ± 0.026 | 0.747 ± 0.0096 | 0.694 ± 0.021 | 0.671 ± 0.042 | 0.7168 ± 0.0032 | 0.7048 ± 0.0032
14 | RHIPSIILAHVV | 0.645 ± 0.057 | 0.67 ± 0.016 | 0.585 ± 0.033 | 0.707 ± 0.033 | 0.172 ± 0.019 | 0.192 ± 0.024 | 0.296 ± 0.01 | 0.295 ± 0.037
15 | RICACHGIRFIP | 0.7111 ± 0.0033 | 0.742 ± 0.0023 | 0.637 ± 0.04 | 0.774 ± 0.051 | 0.3558 ± 0.0018 | 0.392 ± 0.032 | 0.617 ± 0.016 | 0.444 ± 0.064
16 | RIFWMFFSQHIG | 0.569 ± 0.011 | 0.761 ± 0.054 | 0.652 ± 0.019 | 0.7247 ± 0.00085 | 0.106 ± 0.0093 | 0.139 ± 0.024 | 0.288 ± 0.017 | 0.197 ± 0.068
17 | RLCLLLCCRLWL | 0.53 ± 0.023 | 0.58 ± 0.013 | 0.442 ± 0.022 | 0.565 ± 0.012 | 0.461 ± 0.022 | 0.428 ± 0.011 | 0.55 ± 0.01 | 0.4961 ± 0.0041
18 | RLFVRIQLSLLF | 0.313 ± 0.036 | 0.351 ± 0.012 | 0.31 ± 0.025 | 0.398 ± 0.0092 | 0.33 ± 0.0035 | 0.265 ± 0.033 | 0.3506 ± 0.00077 | 0.351 ± 0.0049
19 | RLICFFSMYLRF | 0.239 ± 0.024 | 0.17 ± 0.064 | 0.367 ± 0.058 | 0.395 ± 0.006 | 0.614 ± 0.029 | 0.355 ± 0.026 | 0.369 ± 0.022 | 0.334 ± 0.14
20 | RLLFFVFLSSRF | 0.287 ± 0.019 | 0.268 ± 0.014 | 0.33 ± 0.025 | 0.472 ± 0.0093 | 0.489 ± 0.04 | 0.329 ± 0.035 | 0.4212 ± 0.0027 | 0.407 ± 0.0066

Row | Sequence | protein stability index [1, 3] | protein stability index [1, 4] | protein stability index [1, 5] | protein stability index [1, 6] | protein stability index [1, 7] | protein stability index [1, 8] | protein stability index [1, 9] | protein stability index [2]
21 | RLRCRVLQWVWG | 0.617 ± 0.0085 | 0.693 ± 0.0084 | 0.557 ± 0.038 | 0.6562 ± 0.0012 | 0.352 ± 0.0078 | 0.385 ± 0.027 | 0.571 ± 0.0062 | 0.471 ± 0.035
22 | RLSTTTTKQFIH | 0.668 ± 0.016 | 0.74 ± 0.013 | 0.661 ± 0.045 | 0.753 ± 0.021 | 0.302 ± 0.0053 | 0.348 ± 0.022 | 0.58 ± 0.011 | 0.4902 ± 0.0011
23 | RMTFFGFTVKML | 0.641 ± 0.025 | 0.7448 ± 0.0058 | 0.619 ± 0.0095 | 0.75 ± 0.011 | 0.196 ± 0.036 | 0.264 ± 0.03 | 0.537 ± 0.01 | 0.407 ± 0.031
24 | RNFSFTVICLAM | 0.48 ± 0.037 | 0.62 ± 0.05 | 0.485 ± 0.057 | 0.549 ± 0.0093 | 0.472 ± 0.026 | 0.474 ± 0.023 | 0.514 ± 0.019 | 0.511 ± 0.11
25 | RPCRPLIAAFVF | 0.531 ± 0.0097 | 0.537 ± 0.022 | 0.415 ± 0.045 | 0.5628 ± 0.0049 | 0.374 ± 0.012 | 0.421 ± 0.031 | 0.529 ± 0.0077 | 0.502 ± 0.011
26 | RQILYYRERFIP | 0.577 ± 0.043 | 0.715 ± 0.014 | 0.634 ± 0.011 | 0.694 ± 0.027 | 0.169 ± 0.012 | 0.196 ± 0.022 | 0.355 ± 0.017 | 0.313 ± 0.0065
27 | RRIKNRRLKQVT | 0.63 ± 0.076 | 0.694 ± 0.011 | 0.666 ± 0.064 | 0.722 ± 0.0067 | 0.214 ± 0.0054 | 0.283 ± 0.026 | 0.472 ± 0.036 | 0.43 ± 0.033
28 | RRQLVLVLSWVI | 0.466 ± 0.017 | 0.508 ± 0.018 | 0.346 ± 0.027 | 0.507 ± 0.019 | 0.299 ± 0.013 | 0.322 ± 0.017 | 0.506 ± 0.067 | 0.377 ± 0.025
29 | RRQQNHRQLCAT | 0.65 ± 0.092 | 0.708 ± 0.029 | 0.642 ± 0.028 | 0.7322 ± 0.0065 | 0.21 ± 0.018 | 0.259 ± 0.038 | 0.518 ± 0.038 | 0.401 ± 0.016
30 | RRRNQAAHLYSH | 0.617 ± 0.024 | 0.694 ± 0.044 | 0.67 ± 0.023 | 0.708 ± 0.0077 | 0.139 ± 0.022 | 0.159 ± 0.024 | 0.348 ± 0.011 | 0.268 ± 0.013
31 | RSFGGRPWVLFL | 0.623 ± 0.037 | 0.733 ± 0.023 | 0.638 ± 0.018 | 0.7549 ± 0.0052 | 0.106 ± 0.014 | 0.0971 ± 0.025 | 0.255 ± 0.019 | 0.192 ± 0.034
32 | RTRVRKTRIRTC | 0.624 ± 0.039 | 0.6934 ± 0.0022 | 0.637 ± 0.018 | 0.724 ± 0.015 | 0.234 ± 0.02 | 0.277 ± 0.0072 | 0.517 ± 0.011 | 0.392 ± 0.021
33 | RVFLVLFLILSG | 0.297 ± 0.021 | 0.428 ± 0.0072 | 0.287 ± 0.031 | 0.469 ± 0.0087 | 0.262 ± 0.0092 | 0.286 ± 0.018 | 0.425 ± 0.0055 | 0.344 ± 0.028
34 | RVIRHLRRISNF | 0.647 ± 0.035 | 0.745 ± 0.0042 | 0.661 ± 0.0098 | 0.705 ± 0.046 | 0.142 ± 0.009 | 0.16 ± 0.045 | 0.307 ± 0.034 | 0.369 ± 0.021
35 | RVLSLLGCFVVF | 0.501 ± 0.03 | 0.486 ± 0.013 | 0.448 ± 0.028 | 0.585 ± 0.018 | 0.485 ± 0.017 | 0.429 ± 0.013 | 0.558 ± 0.026 | 0.4651 ± 0.0023
36 | RVLVEIVYFKVF | 0.244 ± 0.0031 | 0.395 ± 0.032 | 0.256 ± 0.04 | 0.474 ± 0.012 | 0.037 ± 0.014 | 0.05 ± 0.0044 | 0.055 ± 0.00095 | 0.134 ± 0.0018
37 | RVRNSQVVAVVG | 0.491 ± 0.014 | 0.576 ± 0.014 | 0.354 ± 0.038 | 0.586 ± 0.0092 | 0.3291 ± 0.0023 | 0.382 ± 0.018 | 0.548 ± 0.022 | 0.477 ± 0.011
38 | RVTEYHTKYKIV | 0.487 ± 0.13 | 0.673 ± 0.076 | 0.656 ± 0.025 | 0.728 ± 0.077 | 0.0697 ± 0.0072 | 0.0674 ± 0.021 | 0.0807 ± 0.021 | 0.153 ± 0.012
39 | RWAAAVPLLVVG | 0.0233 ± 0.0059 | 0.0234 ± 0.0027 | 0.143 ± 0.026 | 0.105 ± 0.0046 | 0.111 ± 0.018 | 0.137 ± 0.032 | 0.0908 ± 0.0062 | 0.211 ± 0.022
